From US20180186880A1

Target: B7-H3 ECD (extracellular domain of B7-H3) (UniProt Q5ZPR3)
Assay: adsorption ELISA on B7-H3 ECD, serial dilutions of purified mAb, estimate of binding affinity

Affinity: 5 nM
B1: TRL4542 (antibody, V domains shown)
VH: QVQLVESGGDLVQPGESLRLSCAASGFIFSDAWMVWVRQAPGKGLEWVGRIKTNGDGGTTDLTEPVKGRFTISRDDSKNMVYLQMNNLRTEDTAIYYCTTAPGFWGQGTLVTVSS
VL: DIEMTQSPDSLAVSLGERATINCKSSHNLLYKSNNKNYLAWSQQKPGQPPRLLIYWASTRDSGVPDRFSGSGSGTDFTLTISSLQAEDVAVYYCHQYYGTKWTFGQGTRVEIKR
